This is an account of results in article doi:10.1101/2023.01.26.525422, “Histone-organized chromatin in bacteria” (bioRxiv, 2023).

Usually stoichiometry N stands for a count of units in the complex or per binding partner.

One series deals with T1, Bd0055 (Bdellovibrio bacteriovorus HD100, UniProt Q6MRM1 1-64).
T1 sequence: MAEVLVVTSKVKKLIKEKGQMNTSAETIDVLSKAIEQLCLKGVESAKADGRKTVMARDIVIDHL
Description: X-ray crystallography; 10 mM NaCl, 0.1 mM EDTA, 50 mM HEPES pH 7.5; 16:1 protein to DNA; 1 dimer per 2.5 bp; FP/FRET: 10 nM DNA, 10 mM NaCl, 1 mM EDTA, 50 mM HEPES pH 6, RT; EMSA: 1 uM DNA, 10 mM NaCl, 1 mM EDTA, 50 mM HEPES pH 7.5, RT. The conditions noted are these: protein: recombinant; chain copies: 2; blunt. On the technique in general: A gel shift assay detects complexes by their altered migration in electrophoresis.

Series [1] deals with the molecule itself. As to the kind of experiment: crystal structure; apo Bd0055; hanging drop, 3.2 M (NH4)2SO4, 100 mM BICINE pH 9; 1.8 Å.

B1: 35 bp DNA (dsDNA)
DNA 1: TCTTGCACTAAGAGCTACTGGAGTGCGTCAGATGT
DNA 2: ACATCTGACGCACTCCAGTAGCTCTTAGTGCAAGA
On to B1, for which, in the series with Bd0055, the binding result was “binds”.

B2: Bd0055, Bdellovibrio bacteriovorus histone (natural protein, Bdellovibrio bacteriovorus HD100, UniProt Q6MRM1 1-64, looked up)
chain: T1 sequence
notes: Bd0055, singlet histone fold protein of Bdellovibrio bacteriovorus HD100; the ORF was expressed; No tag is mentioned; purified by ion exchange, heparin and size exclusion; also called wildtype Bd0055; B. bacteriovorus histone; source: E. coli, codon-optimized ORF in a pET vector, purified (SP HP, Heparin HP, S75)
Regarding B2, the “stoichiometry N” value in series [1] is 2.
